# According to the nanobody polyreactivity screen of Harvey et al. (2022):
# Test: yeast display, Sf9 membrane polyspecificity reagent, FACS + sequencing; frameworks hold sequencing errors
# Method in brief: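 Sorting gates, low and high (top ~1%), were placed on anti-HA fluorescence to track expression and on streptavidin fluorescence to track reagent binding. A clone's polyreactivity label is taken from the gate it came out of. The reagent was 10% biotinylated, detergent-solubilized Sf9 membrane, applied for 1 hour at 4 °C to galactose-induced yeast display cells.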
row,Sequence,polyreactivity (PSR sort gate)
1,QVQLVESGGGLVQAGGSLRLSCAASGITFSPYTMGWYRQAPGKERELVAAINDGAITYYADSVKGRFTISRDNAKNTVYLQMNSLKPEDTAVFYCAAAAWGTDPFSTDYATYDYWGQVTQVTVSS,low polyreactivity
2,QVQLVESGGGLVQAGGSLRLSCAASGSIFSGYTMGWYRQAPGKERELVAGISYRGGSTYYADSVKGRFTISRDNAKNTVYLQMNSLKPEDTAVYYCAARHSTLRGYWGQGTQVTVSS,high polyreactivity
3,QVQLVESGGGLVQAGGSLRLSSAASGGIFSSYAMGWYRQAPGKERELVAAISGSGGRTYYADSVKGRFTISRDNAKNTVYLQMNSLKPEDTSVYYCAAYPVNRVDYRYDYWGQGTQVTVSS,high polyreactivity
4,QVQLVESGGGLVQAGGSLRLSCAASGSTFSPYAMGWYRHAPGKERELVAAITSGGGSTYYADSVKGRFTISRDNAKNTVYLQMNSLKPEDTAVYYCNAYLYYLGGPYDYWGQGTQVTVSS,high polyreactivity
5,QVQLVESGGGLVQAGGSLRLSCAASGSTFSVYTMGWYRQAPGKERELVATISGGGSTYYADSVKGRFTISRDNAKNTVYLQMNSLKPEDTAVYYCNAQGYGIFTSSLDYWGQGTQVTVSS,low polyreactivity
6,QVQLVESGGGLVQAGGSLRLSCAASGSTFRLYPMGWYRQAPGKERELVAAISRSGGSTYYADSVKGRFTISRDNAKNTVYLQMNRLKPEDTAVYYCAKRRPLYAHPDDYWGQGTQVTVSS,low polyreactivity
7,QVQLVESGGGLVQAGGSLRLSCAASGFTFYRYVMGWYRQAPGKERELVAAITGGGRTYYADSVKGRFTISRDNAKNTVYLQMNSLKPEDTAVYYCNKAVPAWGLYDYWGQGTQVTVSS,low polyreactivity
8,QVQLVESGGGLVQAGGSLRLSCAASGRTIYFYTMGWYRQAPGKERELVATAITSGGCTNYAVSVKGRFTISRDNAKNTVHLLMNSRKPEDTAVYYCAAVPTEFGNRLEYDYWGQGTQVTVSS,low polyreactivity
9,QVQLVESGGGLVQAGGSLRLSCAASGNTFAHYVMGWYRQAPGKERELVASITSGGSTNYADSVKGRFTISRDNAKNTVYLQMNSLKPEDTAVYYCAVSLSYWYEAFTTRIDYYYWGQGTQVTVSS,high polyreactivity
10,QVQLVESGGGLVQAGGSLRLSCAASGSTFPPYGMGWYRQAPGKERELVASITSGGSTNYADSVKGRFTISRDNAKNTVYLQMNSLKPEDTAVYYCNADLHSHYDYWGQGTQVTVSS,low polyreactivity
11,QVQLVESGGGLVQAGGSLRLSCAASGSIFTGYAMGWSRQAPGKEREMLAAISWSGGSTSYADSVKGRFTISRDNAKNTVYLQMNSLKPEDTAVYYCSTDVRQGSGWRYYYWGQGTQVTVSS,high polyreactivity
12,QVQLVESGGGLVQAGGSLRLSCAASGRTFRVYARGWYRQAPGKERELVATITSSGGSTYYADSVKGRFTISRDNAKNTVYLQMNSLKPEDTAVYYCNVSVYYNYDSSYYYWGQGTQVTVSS,low polyreactivity
13,QVQLVDTGGGLVQAGGSLRLICAASGLTFSYNAMGWYRQAPGKERELVAAITVSGGRTYYADSVKGRFTISRDNAKNTVYLQMNSLKAEDTAVYYCNADYDEGYYGYLRYDYDYWGQGTQVTVSS,high polyreactivity
14,QVQLVESGGGVVQAGASLRLSCAASGNIFYGYAMGWYRQAPGKERELVARINWSGSRTYYADSVKGRFTISRDNAKNTVYLQMNSLKPEDTAVYYCNTSTSRVPGNGDYWGQGSQVTVSS,high polyreactivity
15,QVQLVESGGGLVQAGGSLRLSCAASGSTFWFYAMGWYRQAPGKERELVAAISSSGTNTYYADSVKGRFTISRDNAKNTVYLQMNSLKPEDTAVCYCAAQYRGSYRTTYDYWGQCTQVTVSS,low polyreactivity
16,QVQLVESGGGLVQAGGSLRLSCAASGRIFQYYVMGRYRQAPGKEREWVAAMTSGGGTKYADSVKGRFTISRDNEKNTVYLQMNSLKPEDTAVYYCAAAWFDQYSRYDYWGQGSQVTVSS,low polyreactivity
17,QVQLEESGGGLVQAGGSLRLSCAASGSTFYGYGMGWYRQAPGKERELVAAITGSGDTTYYADSVKGRFTISRDNAKNTVYLQMNSLKTEDTAVYYCNARWHAEYDYWGQGTQVTVSS,low polyreactivity
18,QVQLVESGGGLVQEGGCLRLSCAASGSIFQGYAMGWYRQAPGKERELVAAITTDGDSTYYADSVKGRFTISRDNAKNTDYLEMNSLKPVDTAVYYCAADQDGRWEGSSEQGDSWGQGTQVTVSS,low polyreactivity
19,QVQLVESGGGLVQAGGSLRLSCAASGRIFYYNAMGWYRQAPGKERELVAAITFDGGRTYYADSVKGRFTISRDNAKNTVYLQMNSLKPEDTAVYYCAASWYYSDFYMYYWGQGTQVTVSS,high polyreactivity
20,QVQLVESGGGLVQAGGSLRLSCAASGNIFAWYAMGWYRQAPGKERELVADISSRGGSTYYADSVKGRFTISRDNAKITVYLQMNSLKPEDSAVYYCAAVWYWTQDYDYWGLGTQVTVSS,low polyreactivity
21,QVQLVESGGGLVQAGGSLRLSCAASGSTFDGNAMGWYRQAPGKERELVATITRRGGSTNYADSVKGRFTISRDNAKNTVYLQMNSLKPEDTAVYYCATADAHSSAAGEDYWGQGTQVTVSS,low polyreactivity
22,QVQLVESGGGLVQAGGSLRLSCAASGSTFAFYAMGWYRQAPGKERELVAAISFSGGSTYYADSVKGRFTISRDNAKNTVYLQMNSLKPEDTAVYYCNARYPNTRKYDYWGQGTQVTVSS,high polyreactivity

row,Sequence,polyreactivity (PSR sort gate)
1,QVQLVESGGGLVQAGGSLRLSCAASGSIFSDYAMGWYRQAPGTERELVAAITEGGDSTYYADSVKGRFTISRDNAKNTVYLQMNSLKPEDTAVYSCAAEVYQLFTSPFDYWGQGTQVTVSS,low polyreactivity
2,QVQLVESGGGLVQAGGSLRLSCAASGRTLGTNAMGWYRQARGKERELVAAISRTGTSTYYADSVKGRFTISRDNAKNTVYLQMNSLKPEDTAVYYCAVRVPVSIPPGNYYYWGQGTQVTVSS,high polyreactivity
3,QVQLVESGGGLVQAGGSLRLSCAASGRIFKLNAMGWYRQAPGNERELVAAITFAGGSTYYADSVKGRFTISRDIAKNTVYLQMNSLKPEDTAVYYCNADFSNVEMDYWGQGTQVNVSS,low polyreactivity
4,QVQLVESGGGLVQARGSLRLSCAASGITFNRYVMGWYRQAPGKERELVAAISRTGGSTYYADSVKGRFTISRDNAKNTDFLQMNSLKPEDTAVYYCAAATSPGIYDYWGQGTQVTVSS,high polyreactivity
5,QLQLVESGGVLDQAGRSLRLICAASVIIFRGYAKGRSRQAHGKERELVAAISRSGGRTYYADSVKGRFTISRDNAKKTVYLQRNSLKTEDTAVYYCAPQWLYLEYDYWGQGTQVTVSS,high polyreactivity
6,QVQLVESGGGLVQAGGSLRLSCAASGRTFDTNARGWYRQAPGKERELVAVITARGGNTSYADSVKGRFTISRDNAKNTVYLQMNSLKPEDTAVYYCAARVYRAPWTYEEGNYWGQGTQVTVSS,low polyreactivity
7,QVQLVESGRGLVQAGGSLRLSCAASGRTFDFNAMGWYRQAPGKERELVAAISSDSDTYYADSVKGRFTISRDNAKNTVFLQMNSLKPEDTAVYYCAAEHQYPYGWYYYWGQGTQVTVSS,high polyreactivity
8,QVQLVESGGGLVQAGGSLRLTCAASGSTFYIYAMGWYRQAPGKERELVAAISQGGGSTSYADSVKGRFTISRDYAKNTVYLQMNSLKPEDTAVYYCAARRASRVRGKEGGYWGQGSQVTVSS,high polyreactivity
9,QVQLVESGGGLVQAGGSLRLSCAASGYIFERNAMGWYRQAPGKERELVAAITDDGDDTYYADSVKGRFTISRDNAKNTVYLQMNSLKPEETAVYYCAKDLYYGDYYYWGQGTQVTVSS,low polyreactivity
10,QVQLVESGGGLVQVGGSLRLSCAASGITLSYYAMGWYRQAPGKERELVASITVSRTSTYYADSVKGRFTISRDNAKNSVYLQMNSLKPEDTAVYYCAAYAYQYRFSGYGYWGQGTQVTVSS,low polyreactivity
11,QVQLVESGGGLVQAGGSLRLSCAASGSTFGGYAMGWYRQAPGKERELVASISGGTRTNYADSVKGRFTISRDNAKNTVYLQMNSLKPEDTAVYYCAAEVGLPTWYTLPVDDYDYWGQGTQVTVSS,low polyreactivity
12,QVQLVESGGGLVQAGGSLRLSCAASGIIFLHYAMGWYRQAPGKEREFVAAISWSGGSTHYADSVKGRFTISRDNAKNTVYLQMNSLKPEDTAVYYCAAYTFYSYDYWGQGTQVTVSS,high polyreactivity
13,QVQLVESGGGLVQAGGSLSLSCAASGRIFATNAMGWYRQAPGKERELVATITRSDGRTYYAVSVKGRFTISRDNAMNSVYLEMNSLKPEDTAVYFCAAYYSDTEPGYREYDYWGQGTQVTLSS,low polyreactivity
14,QVQLVESGGGLVQAGGSLRLSCAATGRNFAVNAIGWYRQAPGKERELVASIRWSGGGTYYADSVKGRFTISRDNAKNTVYLQMNCLKPEDTAVYYCKALRKTYRLDYWGQGTQVTVSS,high polyreactivity
15,QVQIVESGGGLVQAGGSLRLSCAASGLTFAYYAMGRYRQAPGKERELVAAISYSGGSTYYADSVKGRFTISRDNAKITVYLQMNSLKPEDTAVYYCNAYSRKTPHLYYYWGQGTQVTVSS,high polyreactivity
16,QVQVGESGGGLVQAGGSLSLSCAASGSIFPANAMGWYRQAPGKERELVAAITRGGRTYYADSVKGIFTISRDNAKNCVYLQMNSLKPEDTAVYDCAAYVLSKREYYRYDYWGQGTQVTVSS,high polyreactivity
17,QVQLVESGGGLVQAGGSFRLSCAASGSIFVVYAMGWYRQAPGKERELVAAITSGGSTYYADSVKGRFTISRDNAKNTVYLQMNSLKPEDTAVYYCNAKRTGPWFLHVPVYYWGQGTQVTVSS,low polyreactivity
18,QVQLVESGGGLVQAGGSLRLSCAASGNTFAGNAMGWYRPAPGKERELVAAISRSGVTTRYADSVKGRVTISRDNAKHTVYLQMNSLKPEDTAVYYCNADPRLRQTRDYWGQGTQVTVSS,high polyreactivity
19,QVQLVESGGGLVQAVGSLRLSCAASGSIFLLYDMGWYRPAPGKERELVAAITWSGGSTYYADSVKGRFTISRDNAKNTVYLQMNSLKPEDTAVYYCAADEPYPTAYEYWGQGTQVTVSS,low polyreactivity
20,QVQLVESGGGLVQAGGSLRLSCAASGLIFQFNAKGWYTQAPGKDREFVAAISGRADSTYYADSVKGRFTISRDNAKNTVYLQMNSLKPEDTAVYYCAALAYYHRYEYWGQGTQVTVSS,low polyreactivity
21,QVQLVESGGGLVQAGGSLRLSCAASGRTFWYYAMGWYRQAPGKERELVAVINSSGGRTYYADSVKGRFTISRDNAKNTVYLQMNSLKPEDTAVYYCAAYRGVPSRYDYWGQGTQVTVSS,high polyreactivity
